Reference: patent US20230357384A1 (NEXTCURE, published 2023)

How the values were obtained:
[1] = target: T1, FLRT3 (antigen of the binning assay of Table 2) (Homo sapiens (Human), UniProt Q9NZU0 29-528, limits assumed); assay: antibody binning matrix (Table 2); competitor: 14B7
T1 construct: the whole entry for FLRT3 is named
T1 sequence: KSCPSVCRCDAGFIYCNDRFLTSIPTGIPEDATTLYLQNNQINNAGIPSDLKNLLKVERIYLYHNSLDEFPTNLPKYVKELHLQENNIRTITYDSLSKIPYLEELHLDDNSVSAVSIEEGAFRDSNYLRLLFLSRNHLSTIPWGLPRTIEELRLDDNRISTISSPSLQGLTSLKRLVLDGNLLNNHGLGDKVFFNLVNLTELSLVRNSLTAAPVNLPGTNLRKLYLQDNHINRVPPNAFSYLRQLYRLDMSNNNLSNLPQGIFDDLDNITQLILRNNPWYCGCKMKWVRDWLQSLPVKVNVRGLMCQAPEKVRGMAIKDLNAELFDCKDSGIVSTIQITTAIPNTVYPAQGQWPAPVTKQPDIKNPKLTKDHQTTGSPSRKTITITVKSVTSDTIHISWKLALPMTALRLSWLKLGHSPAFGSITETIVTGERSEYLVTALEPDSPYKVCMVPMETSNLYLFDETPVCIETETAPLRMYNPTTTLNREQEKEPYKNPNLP

[2] = target: T1, FLRT3 (antigen of the binning assay of …); assay: antibody binning matrix (Table 2); row '1X Kinetic' (no first antibody), column antibody taken as binder
[3] = target: T2, human FLRT3 on cells (human, UniProt Q9NZU0 29-649); assay: flow cytometry on 293T cells transfected with human FLRT3, normalised MFI, non-linear fit; Exp 2
T2 construct: also called hFLRT3
T2 sequence: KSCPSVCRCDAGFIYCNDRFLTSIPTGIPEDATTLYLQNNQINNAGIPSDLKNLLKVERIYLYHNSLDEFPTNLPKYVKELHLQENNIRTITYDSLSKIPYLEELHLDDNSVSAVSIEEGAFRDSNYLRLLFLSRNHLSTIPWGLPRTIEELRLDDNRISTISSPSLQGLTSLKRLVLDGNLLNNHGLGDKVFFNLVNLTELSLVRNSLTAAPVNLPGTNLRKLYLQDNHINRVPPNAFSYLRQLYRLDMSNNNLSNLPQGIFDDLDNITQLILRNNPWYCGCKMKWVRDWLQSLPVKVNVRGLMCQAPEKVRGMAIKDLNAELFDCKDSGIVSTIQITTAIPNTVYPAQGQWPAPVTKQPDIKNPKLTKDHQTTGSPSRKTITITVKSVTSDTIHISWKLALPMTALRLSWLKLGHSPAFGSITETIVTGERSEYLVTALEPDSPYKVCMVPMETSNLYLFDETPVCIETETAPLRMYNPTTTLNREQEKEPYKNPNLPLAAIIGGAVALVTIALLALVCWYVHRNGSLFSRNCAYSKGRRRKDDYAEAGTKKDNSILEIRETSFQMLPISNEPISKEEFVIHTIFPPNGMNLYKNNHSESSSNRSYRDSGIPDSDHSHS
Excerpt: (§1) MFI values of each group were normalized within that group- i.e. largest value 100% and smallest value 0%.

[4] = target: T3, FLRT3-Fc (Homo sapiens (Human), UniProt Q9NZU0 29-528, biotin label in Example 8 (site not stated)); assay: competition ELISA: FLRT3-Fc biotin binding to coated Unc5B-Fc with titrated antibody
T3 construct: also called FLRT3-Fc biotin; soluble FLRT3; not shown: Fc part
T3 sequence: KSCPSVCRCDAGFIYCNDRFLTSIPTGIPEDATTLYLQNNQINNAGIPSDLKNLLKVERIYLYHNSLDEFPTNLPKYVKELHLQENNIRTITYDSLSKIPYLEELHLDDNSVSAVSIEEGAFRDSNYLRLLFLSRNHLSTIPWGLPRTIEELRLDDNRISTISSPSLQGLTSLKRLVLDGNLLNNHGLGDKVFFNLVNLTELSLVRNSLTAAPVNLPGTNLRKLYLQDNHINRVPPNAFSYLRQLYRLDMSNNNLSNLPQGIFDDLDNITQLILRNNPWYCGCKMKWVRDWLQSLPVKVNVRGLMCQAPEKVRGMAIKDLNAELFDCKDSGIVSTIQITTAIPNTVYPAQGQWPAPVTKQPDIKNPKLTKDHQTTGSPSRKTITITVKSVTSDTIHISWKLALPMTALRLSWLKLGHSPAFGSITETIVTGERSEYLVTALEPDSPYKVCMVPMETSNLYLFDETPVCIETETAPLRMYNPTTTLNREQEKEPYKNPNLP
Protocol: The FLRT3 antibodies were tested for their ability to block FLRT3-Unc5B interaction in ELISA assays (FIG. 14A). The binding of FLRT3-Fc biotin to Unc5B-Fc was confirmed in the absence of blocking mAbs (FIG. 14B).

[5] = target: T1, FLRT3 (antigen of the binning assay of …); assay: antibody binning matrix (Table 2); competitor: 2F7
[6] = target: T2, human FLRT3 on cells; assay: flow cytometry on A549 cells (endogenous hFLRT3), normalised MFI, non-linear fit
Protocol: (§2) Increasing concentrations of FLRT3 antibodies bound to A549 cells that express endogenous hFLRT3 (FIG. 19). Binding curves for the top three antibodies were performed (FIG. 20A). MFI values of each group were normalized within that group- i.e. largest value 100% and smallest value 0% (FIG. 20A). EC50 values were calculated based on non-linear regression fit (FIG. 20B).

[7] = target: T2, human FLRT3 on cells; assay: as above; remark: listed apart in the source
Protocol: as §2

[8] = target: T1, FLRT3 (antigen of the binning assay of …); assay: antibody binning matrix (Table 2); competitor: 5C2
[9] = target: T1, FLRT3 (antigen of the binning assay of …); assay: antibody binning matrix (Table 2); competitor: 15G11
[10] = target: T4, FLRT3-His monomeric fusion protein (Homo sapiens (Human), UniProt Q9NZU0 29-528); assay: kinetic affinity measurement with FLRT3-His monomer (Table 1)
T4 construct: also called FLRT3 monomer; not shown: His tag
T4 sequence: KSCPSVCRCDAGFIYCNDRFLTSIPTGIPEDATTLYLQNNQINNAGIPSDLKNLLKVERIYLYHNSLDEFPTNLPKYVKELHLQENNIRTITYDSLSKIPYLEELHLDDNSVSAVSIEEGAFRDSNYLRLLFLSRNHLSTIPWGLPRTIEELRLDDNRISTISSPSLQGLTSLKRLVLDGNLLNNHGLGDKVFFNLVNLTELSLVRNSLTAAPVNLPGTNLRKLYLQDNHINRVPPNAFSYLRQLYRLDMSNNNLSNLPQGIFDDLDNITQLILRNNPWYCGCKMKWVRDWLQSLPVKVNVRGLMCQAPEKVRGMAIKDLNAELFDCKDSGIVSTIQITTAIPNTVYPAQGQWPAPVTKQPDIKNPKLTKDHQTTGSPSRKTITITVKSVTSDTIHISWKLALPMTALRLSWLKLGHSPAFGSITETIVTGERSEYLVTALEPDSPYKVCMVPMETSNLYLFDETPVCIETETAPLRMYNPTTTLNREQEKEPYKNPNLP

[11] = target: T2, human FLRT3 on cells; assay: flow cytometry on 293T cells transfected with human FLRT3, normalised MFI, non-linear fit
Excerpt: as §1

[12] = target: T1, FLRT3 (antigen of the binning assay of …); assay: antibody binning matrix (Table 2); competitor: 14D3
[13] = target: T2, human FLRT3 on cells; assay: flow cytometry on 293T cells transfected with human FLRT3, normalised MFI, non-linear fit; Exp 1
Excerpt: as §1

[14] = target: T1, FLRT3 (antigen of the binning assay of …); assay: antibody binning matrix (Table 2); competitor: 1H5

binning response (no name or unit printed) [1]: 0.0294 | binning response (no name or unit printed) [2]: 1.73 | EC50 [3]: 1.35 nM | IC50 (read off the curve) [4]: ~2 µg/mL | binning response (no name or unit printed) [5]: 0.771 | EC50 [6]: 0.29 nM | EC50 [7]: < 1 nM | binning response (no name or unit printed) [8]: 0.0014 | binning response (no name or unit printed) [9]: 1.07 | Kd [10]: 0.349 nM | koff [10]: 0.000138 s⁻¹ | kon [10]: 436000 M⁻¹ s⁻¹ | EC50 [11]: < 1.5 nM | binning response (no name or unit printed) [12]: 0.621 | EC50 [13]: 1.41 nM | binning response (no name or unit printed) [14]: 0.671
B1: 14B7 (antibody, V domains shown)
VH: QVQLQQSGPELVKPGASVNISCKASGYAFGNSWMNWVKQRPGKGLEWIGWIYPGDGNANYNGKFKGKATLTADKSSSTAYMQLSSLTSEDSAVYFCARALYDYDGWFAYWGQGTLVTVSA
VL: DIQMNQSPSSLSASLGDTITIACRASQNIDIWLSWYQQKPGSIPKLLIYKASNLHTGVPSRFSGSGSGTDFTLTISSLQPEDIATYYCLQGQSFPFTFGSGTKLEIK
notes: Variable domains only; also called FLRT3 mAb 14B7; antibody 14B7
